The target in this series is T1, GST-GLK1 (Arabidopsis thaliana, UniProt Q9SIV3 1-420).
T1 sequence: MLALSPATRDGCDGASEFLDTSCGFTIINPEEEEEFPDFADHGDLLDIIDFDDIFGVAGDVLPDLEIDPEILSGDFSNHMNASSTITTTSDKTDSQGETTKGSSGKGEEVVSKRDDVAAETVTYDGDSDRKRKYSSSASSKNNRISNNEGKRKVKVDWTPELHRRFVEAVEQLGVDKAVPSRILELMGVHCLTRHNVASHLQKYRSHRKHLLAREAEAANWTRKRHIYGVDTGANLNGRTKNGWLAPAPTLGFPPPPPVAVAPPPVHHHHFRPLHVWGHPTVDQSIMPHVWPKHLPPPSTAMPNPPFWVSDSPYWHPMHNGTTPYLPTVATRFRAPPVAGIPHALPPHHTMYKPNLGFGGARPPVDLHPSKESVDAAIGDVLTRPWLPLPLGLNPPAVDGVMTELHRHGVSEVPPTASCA
In words: EMSA; without BPG4; GLK1 EMSA: 10 mM Tris-HCl pH 8.0, 50 mM KCl, 10 mM EDTA, 2.5% glycerol, 1 mM DTT, 0.05 ug/ul poly(dI-dC), 5 pmol probe; proteins preincubated on ice 5 min then. To be noted: protein: recombinant; tags: N-term GST (pGEX-6P-3); label: FAM; blunt. On the technique in general: A gel shift assay detects complexes by their altered migration in electrophoresis.

B1: CAO-probe (dsDNA)
DNA 1: TTTAGATCCCATGATTCTCAACACGACTGA
DNA 2: TCAGTCGTGTTGAGAATCATGGGATCTAAA
B1: the binding result is listed as “binds”.
